Measurements taken from the supplement of paper PMC12764529.
± gives the half width of the 95% confidence interval.

How the values were obtained:
[1] = folding stability dG unfold from trypsin proteolysis; higher = more stable
Method in brief: (§1)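 Bayesian fitting of sequencing counts gave K50 for each design. Unfolding free energy followed by setting this against a sequence-predicted unfolded-state K50 and a shared folded-state K50, either per protease or with trypsin and chymotrypsin combined. The designs, under 80 residues and lacking cysteine, were digested in a PA-tagged cDNA display format at 11 threefold-diluted protease concentrations and without protease, and only those with AlphaFold2 dimer inter-PAE above 15 were kept.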

[2] = folding stability dG unfold (combined trypsin and chymotrypsin); higher = more stable
Method in brief: as §1

[3] = folding stability dG unfold from chymotrypsin proteolysis; higher = more stable
Method in brief: as §1

## SAGGQKTETFEFAFRKPDGSLYLVKITLIEKLPNEPNVYIAKVEVYKLNLVTGKPEKVGEFEVLLNLSAGGS [r8_65_TrMRF]
[1]
  folding stability dG unfold: 14.2 ± 0.544 kJ/mol
[2]
  folding stability dG unfold: 20.8 ± 0.586 kJ/mol
[3]
  folding stability dG unfold: 21.1 ± 0.628 kJ/mol

## SAGGQRIEFEVQPNPENGMIFIKVKFQQMEPDPNGNKETREITHTVMVKLPPGAKPGEKIEIDIPPNMSAGG [r13_450_TrROS]
[1]
  folding stability dG unfold: 3.59 ± 0.192 kJ/mol
[2]
  folding stability dG unfold: 4.6 ± 1.63 kJ/mol
[3]
  folding stability dG unfold: 3.47 ± 1.05 kJ/mol

## SAGGQRIEIKIKPGYFIMIKIRNPKNGETFRHFIPFKKPQEIEIPIPPNYEIEDIYIMPPKDMPDGMISAGG [r13_119_TrROS]
[1]
  folding stability dG unfold: 8.81 ± 0.243 kJ/mol
[2]
  folding stability dG unfold: 8.99 ± 0.753 kJ/mol
[3]
  folding stability dG unfold: 9.55 ± 0.377 kJ/mol

## SAGGRIEIDPNSMQIKIYDAEDGEKVEIPINMPPGQIKEIELDPDGKISIRMPMWGQTQELPADDIKSAGGS [r16_410_TrROS]
[1]
  folding stability dG unfold: -0.861 ± 0.255 kJ/mol
[2]
  folding stability dG unfold: 3.32 ± 0.669 kJ/mol
[3]
  folding stability dG unfold: 5.11 ± 0.0962 kJ/mol

## SAGGRIVINLNPENGYLMISIRMPHRRYDPEDGKGKPEPMSMSIMFPPEEIEKFAEEFGMPIEIVPWSAGGS [r8_337_TrROS]
[1]
  folding stability dG unfold: 5.93 ± 0.297 kJ/mol
[2]
  folding stability dG unfold: 6.54 ± 0.753 kJ/mol
[3]
  folding stability dG unfold: 5.87 ± 0.669 kJ/mol

## SAGGSAAEETYESDGLTVTVRTERGPDGTVRVVVEVRDRDGPLLATLPFTFKAREDEGLSFSVPFPSAGGSA [r15_950_TrMRF]
[1]
  folding stability dG unfold: 5.34 ± 0.151 kJ/mol
[2]
  folding stability dG unfold: 5.6 ± 0.318 kJ/mol
[3]
  folding stability dG unfold: 5.27 ± 0.414 kJ/mol

## SAGGSAAGYAVLVRVEEVRLTSFRRRADGSLLEVDPDVELKLEVLAVFRIYPSPGDGWVVDPSDPASAGGSA [r15_162_TrMRF]
[1]
  folding stability dG unfold: 11.4 ± 0.238 kJ/mol
[2]
  folding stability dG unfold: 14.8 ± 0.259 kJ/mol
[3]
  folding stability dG unfold: 16.01 ± 0.105 kJ/mol

## SAGGSAALPIVEVLETEESSDGTVTILAKLEDGTVVTITVTVEVKPPPPPPPVDPANMSPERLAAVSAGGSA [r15_41_JUSTAS]
[1]
  folding stability dG unfold: 4.17 ± 0.335 kJ/mol
[2]
  folding stability dG unfold: 2.37 ± 0.795 kJ/mol
[3]
  folding stability dG unfold: 0.758 ± 0.293 kJ/mol

## SAGGSAAPEDTLVEEEVEIVTEETDPKLGGKKIVTTKVKRLIRYFPEKGELEVETVETETTVYPNESAGGSA [r15_517_JUSTAS]
[1]
  folding stability dG unfold: -2.69 ± 1.97 kJ/mol
[2]
  folding stability dG unfold: 0.466 ± 0.418 kJ/mol
[3]
  folding stability dG unfold: 1.74 ± 0.351 kJ/mol

## SAGGSAAPLVLPVRIYGPNENVTAEASEYDPGTGIVRLTVTHPDGTKTTLTFTGPAALLPPDADLNSAGGSA [r15_596_TrMRF]
[1]
  folding stability dG unfold: 2.56 ± 0.0962 kJ/mol
[2]
  folding stability dG unfold: 3.2 ± 0.234 kJ/mol
[3]
  folding stability dG unfold: 3.55 ± 0.276 kJ/mol

## SAGGSAAPPVTVEVLPDGRIVITRGDAVASSVTPVPPDATITATFPATGETVTITRRAPEVTVTPASAGGSA [r15_235_JUSTAS]
[1]
  folding stability dG unfold: -2.58 ± 1.21 kJ/mol
[2]
  folding stability dG unfold: 3.49 ± 0.406 kJ/mol
[3]
  folding stability dG unfold: 4.97 ± 0.0711 kJ/mol

## SAGGSAAPVPVGAELAAAAPGAAVTVELPDGVTATVTRVGDTLVVDVTRFSEPPLPVSSATATLPLSAGGSA [r15_558_JUSTAS]
[1]
  folding stability dG unfold: -1.55 ± 0.276 kJ/mol
[2]
  folding stability dG unfold: 1.71 ± 0.209 kJ/mol
[3]
  folding stability dG unfold: 2.67 ± 0.117 kJ/mol

## SAGGSAATVEVTRLPGGRYVVRLRNPDTDEEIVVELPVDASTTPEDVLEAARALVAELEEEGYTIESAGGSA [r15_1022_TrMRF]
[1]
  folding stability dG unfold: 12.2 ± 0.293 kJ/mol
[2]
  folding stability dG unfold: 12.7 ± 0.243 kJ/mol
[3]
  folding stability dG unfold: 13.12 ± 0.1 kJ/mol

## SAGGSAAVGTSKGANVVTVRVEELEDKVVVYRYDPATGTVRVIVIDKPTGKALETKTFPVLPDQDASAGGSA [r15_425_TrMRF]
[1]
  folding stability dG unfold: 4.22 ± 0.0753 kJ/mol
[2]
  folding stability dG unfold: 6.92 ± 0.205 kJ/mol
[3]
  folding stability dG unfold: 8.18 ± 0.197 kJ/mol

## SAGGSADELLDKLGLPPDNIRKIKPVEPNPNGMRQLELEWPYKENGKEWRITIMYSPDGIMIDIEPSAGGSA [r15_813_TrROS]
[1]
  folding stability dG unfold: 3.49 ± 0.255 kJ/mol
[2]
  folding stability dG unfold: 6.59 ± 0.418 kJ/mol
[3]
  folding stability dG unfold: 7.83 ± 0.222 kJ/mol

## SAGGSADEVEITLELEVELAPGQKTLTFKLLNLPPGLKFEVEEVELKVVEEDGKLRVEATIRIKKDSAGGSA [r15_321_TrROS_Hall]
[1]
  folding stability dG unfold: 12 ± 0.711 kJ/mol
[2]
  folding stability dG unfold: 15.6 ± 0.669 kJ/mol
[3]
  folding stability dG unfold: 18.2 ± 0.711 kJ/mol

## SAGGSADIPSDWTVTPVSSSYDPATGTTTTEETVYDSKGNPQYKITVTTTFDPTTGTTTTTVTYNPSAGGSA [r15_1028_JUSTAS]
[1]
  folding stability dG unfold: 9.91 ± 0.276 kJ/mol
[2]
  folding stability dG unfold: 9.08 ± 0.243 kJ/mol
[3]
  folding stability dG unfold: 8.592 ± 0.0753 kJ/mol

## SAGGSADLPPEVGSVTYSQNVPLDEIDEFIQEVIEKLGISPEEIKEIKVSRKTVPGSGVVSLTIVLSAGGSA [r15_934_JUSTAS]
[1]
  folding stability dG unfold: 6.11 ± 0.255 kJ/mol
[2]
  folding stability dG unfold: 5.6 ± 0.544 kJ/mol
[3]
  folding stability dG unfold: 4.95 ± 0.301 kJ/mol
